A short description of this data set: yeast display, Sf9 membrane polyspecificity reagent, FACS + sequencing; frameworks hold sequencing errors. The method, boiled down: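 In a synthetic yeast display library (Saccharomyces cerevisiae BJ5465), nanobody expression was induced with galactose for 36–48 hours. FACS gates were set low and high (top ~1%) using anti-HA fluorescence for expression and streptavidin fluorescence for binding of the Sf9 membrane reagent. Each polyreactivity label is drawn from the gate of origin.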
Take “QEQLQESGGGLVQAGGDLRLSCAESGNIFRDYIMGWYRQAPGKEREFVAGIDRGANTNYADSVKGRFTISRDNAKNTVYLQMNSLKPEDTAVYYCAVHTAIVPDFIYWGQGTQVTVSS”: the “polyreactivity (PSR sort gate)” value is on record as “low polyreactivity”.
In the case of “QVQLVESGGGLVQAGGSLRLSCAASGSTFEWNAMGWYRQAPGKERELVAAISWRTTRTYYADSVKGRFTISRDNAKNTVYLQMNSLKPEDTAVYYCAVVTSPYYGGYEYWGQGTQVTVSS”, the “polyreactivity (PSR sort gate)” value is reported as “high polyreactivity”.
Then “QVQLVESGGGIVQAGGSLRLSCAASGSTFYDYAMGWYRQAPGKETELVAAITRGGSTYYADSVKGRFTISRDNAKNTVYLQMNILKPEDTAVFYCAKYLTCAAYLVPEYDYWGQGTQVSVSS”, with “low polyreactivity”.
For “QVQLHESGGGLVQAGGGLRLSCAASGSISSTGFMGWYRQAPGKEREPVAAIAQGTTTYYAESVKGRFTISRDNAINTVYLQMNSLRPEDTAVYYCAVFTDNRVAFLYWGQGTQVTVRS”, the “polyreactivity (PSR sort gate)” value is on record as “low polyreactivity”.
As for “QVQLVESGGGLVQAGGSLRLSCAASGRTYWYYVMGWYRQAPGTERELVAAISSSGGRTYYADSVKGRFTISRDNAKNTVYLQMNSLKPEDTAVYYCNVDAWYPYQGFLVGYYYWGQGTQVTVSS”, the “polyreactivity (PSR sort gate)” value is given as “low polyreactivity”.
Consider “QVQLVESGGGLVQAGGSLRLSCAASGGTFGTNTMGWYRQAPGKERELVAAISRSGGSTYYADSVKGRFTISRDNAKNTVYLQMNCLKPEDTAVYYCNAVPRKYTDEFDYWGQGTQVTVSS”, for which the “polyreactivity (PSR sort gate)” value was “high polyreactivity”.
Next, “QVHLVESGGGLVQAGGSLRLSCAASGSILARYAMGWYRQAPRKERELVASITTSGDSTYYADSVKGRFTISRDNAKNTVSLQMNSLIPEDTAVYYCARRRWGWGYQHFPYYYWGQGTQVTVSS”: “high polyreactivity”.
Then “QVQLVESGGGLVQAGGSLRLSCAASGSIFRRYAMGWYRQAPGKERELVAAISWRGDSTYYADSVKGRFTISRDNAKNTVYLQMNSLKPEDTAVYYCNSLIGANPLCYAARYDYWGQGTQVTVSS”, with “low polyreactivity”; and “QVQLVESGGGLVQAGGSLRLSCAASGSIFPTYAMGWYRQAPGKEWELVAAIRGDGSTNYADSVKGRFTISRDNAKNTVYLQMNSLKPEDTAVSYCAAVSSEYVFRYGGYWGQGTQVTVSS”, with “low polyreactivity”; and “QVQLVESGGGLVQAGGSLRLSCAASGFTFYGYAMGWYRQAPGKERELVAAISRSGVRTYYADSVKGRFTISRDNAKNTVYLQMNSLKPEDTAVYYCNAVPRYGYYWGQGTQVTVSS”, with “high polyreactivity”.
Take “QVQLVESGGGLVQAGGSLRLSCAASGRIFSDYAMGWYRQAPGKERELVAAISRSGTRTYYADSVKGRFTISRDNAKNTVYLQMNSLKPEDTAVYSCAAKTPYGRAGQEEDYCGQGTQVTVSS”: the “polyreactivity (PSR sort gate)” value is reported as “high polyreactivity”.
“QVQLVESGGGLVQAGGSLRLRCAASGHIFGRYAMGWYRQAPGKERELVAAFTSGGTTYYADSVKGRFTISRDNAKNTVYLQMNSLKPEDTAVYYCAAKFQLKRYSSPFIWYDSWGQGTQVTVSS”: the “polyreactivity (PSR sort gate)” value is recorded as “high polyreactivity”.
Next, “QVQLVESGGGLVQAGCSLRLSCAAYGSIFSYNAMGWYRQAPGKERELVASISWSGGRTFYADSVKGRFTISRDNAKNTVYLQMNSLKPEDTAVYYCAFRHYSTYYSRFGYWGQGTKVTVSS”: “high polyreactivity”; “QVQLVESGGRLVQAGGSLRLSCAPSGNTFALNAMGWYRQAPGKERELVAAISRRGASTYYADSVKRRFTISRDYAKNTVYIQMNSLKPEDNALDYCAADSGPRVGFFYWGQGTQVTVSS”: “high polyreactivity”.
In the case of “QVHLVESGGGLVQAGGSLRLSCAASGRIYAFYAMGWYRQAPGKERELVAAISSGGNTKYADSVKGRFTISRDNAKNTVYLQMNSLKPEYTAVFYCDARTPWYNKGDYWGLGTQVTVSS”, the “polyreactivity (PSR sort gate)” value is listed as “low polyreactivity”.
Next, “QVQLVESGGGLVQAGGSLRLSCAASGFIFTYNAMGWYRQAPGKETEFVASISRSGGRTYYADSVKGRFTISRDNAKNTVYLQMNSLKPEDTAVYYCAARNAYVYGMDYWGHGTQVTVSS”: “low polyreactivity”.
As for “QVQLVESGGGLVQAGGSLRLSCAASGSIFRTNAMGWYRQAPGKERELVAAISQRGGSTYYADSVKGRFTISRDNAKNTVYLQMNSLKPEDTAVYYCAAPYTQKRGYDYWGQGTLVTVSS”, the “polyreactivity (PSR sort gate)” value is given as “high polyreactivity”.
In the case of “QVQLVESGGGLVQAGGSLRLSCAASGFTFPRYAMGWYRQAPGKERELVAVITRRGGSTYYADSVKGRFTISRDNAKNTVYLQMNSLKPEDTAVYDCAASDPSNKSSRPGYSYDSDSWGQGTQVTVSS”, the “polyreactivity (PSR sort gate)” value is reported as “high polyreactivity”.
In the case of “QVQLVESGGGLVQPGGSLRLSCAASGSIDCYGMGWYRQAPGKERELVAIITSVYSTYYADSVKGRFKISRDNAKNTVYLQMNSLKPEDTAVYYCAATAAYFYGQFYYWGQGTQVTVSS”, the “polyreactivity (PSR sort gate)” value is reported as “high polyreactivity”.
On to “QVQLVESGGGLVQAGGSLRLSCAASGFTFIKNAMGWYRPAPGKERELVAAINSGGRTYYADSVKGRFTISRDNAKNTVYFQMNSLIPEDTAVYYCAARYTRDYYWGQGTQVTVSS”, for which the “polyreactivity (PSR sort gate)” value was “high polyreactivity”.
Take “QVQLVESGGGLVQAGGSRRLSCAASGFIFTKYTMGWYRQAPGKERELVAAIRSDGVRTYYADSVKGRFTISRDNAKNTVYLQMNSLKPEDTAVYYCAARSLRYGRGMYYWGQGTQVTVSS”: the “polyreactivity (PSR sort gate)” value is given as “high polyreactivity”.
As to “QVQLVESGGGLVQAGGSLRLSCAASGSIFKYYAMGWYRQAPGKERELVAAISYSGGRTYYADSVKGRFTISRDNAKNTVYLQMNSLKPEDTAVYYCNAELYPWPGVVRYNYWGQGTQVTVSS”, the “polyreactivity (PSR sort gate)” value is “high polyreactivity”.
Then “QVQLVESGGGLVQAGGSLRLSCAASGRTFGYNAMGWYRQAPGKERELVAAIRTIGDSTYYADSVKGRFTISRDNAKNSVYLQMNSLKPEDTAVYYCAARKLRSRYDYWGQGTQVTVSS”, with “high polyreactivity”; and “QVQLVESGGGLVQAGGSLRLSCAASGIFGWNTMGWYRQAPGTERELVATISWGGGTTYYADSVKGRFTISRDNAKNTVYLQMNSLKPEDTAVYYCAKVYAVRIGLRYYYWGQGTQVTVSS”, with “low polyreactivity”.
Turning to “QVQLVESGGCIVQAGGSLRLSCAAYGRIFAKYVMGWSRKAPGKERELVAAITSSGGSTYYADSVKGRFTISRDNAKNTVYVQMNSLKSEDTAVYYGAAGPSYHSSYYSWGQVTQVTVSS”, the “polyreactivity (PSR sort gate)” value is recorded as “high polyreactivity”.
On to “QVQLVESRGGLVQAGGSLRLSCAASGRNFRFNAMGWYRQEPGKERELVAAISASGGITYYADSVKGRFTISRDNAKNTVYLQMNSLKPEDSAVYYCAADLYATWSYFFTWLDNWGQGTQVTVSS”, for which the “polyreactivity (PSR sort gate)” value is on record as “high polyreactivity”.
Next, “QVQLVESGGGLVQAGGSLRLSCAASGSIFDGNAMGWYSQAPGKERELVAAITTDYRTYYADSVKGRFTISRDNAKNTFYLQMNSLKPEDTAVYYCNVVIYYFNSRTVYYDYDYWGQGTQVTVSS”: “high polyreactivity”; “QVQLVESGGGLVQAGGSLRLSCAASGRIFSVNAMGWYRQATGKERELVASITMSGGSTYYADSVKGRFTISRDNAKNTVYIQMNSLKPEDTAVYYCAKGWSRYNDRERDDEYWGQGTQVTVSS”: “low polyreactivity”.
Then “QVQIVESGGGLVQAGGSLRLSCAASGRILWFYAMGWYRHAPGKERELVAAITDSGGSTYYADSVKGRFTISRDNAKNPVYLQMNSLKPEDTAVYYCAADGDRYISGGGLAHYDYWGQGTQVNVSS”, with “low polyreactivity”; and “QVQLVESGGGLVQAGGSLRLSCAASGRIFSWYAMGWYRQAPGKEREMVARITTRGGNTYYADSVKGRFTISRDNAKNTVFLQMNSLKPEDTAVYYCAARHPYPIYDYWGQGTQVTVSS”, with “low polyreactivity”; and “QVQLVESGGGLVQAGGSLRLSCAASGSIFKGNAMGWYRQAPGTERELVASITRSVARTYYADSVKGRFTISRDNAKNTVFLLMNSLKAEDTAVYYCAADWYQWGGRYYAPRYYYWGQGTQVTVSS”, with “high polyreactivity”.
With “QVQLVESGGGLVQAGGSLSLSCAASGRIFNRNAMGWYRQAPGKERELVASISSGGRTNYADSVKGRFTISRDNAKNTFYLQMNSLKPEDTAVYYCAAKSPRILLDYWGQGTQVTVSS”, the “polyreactivity (PSR sort gate)” value is reported as “low polyreactivity”.
For “QVQLVESGGGLVQAGGSLRLSCAASGSIFRGNALGWYRQAPGKERELFAAISKSGGSTYYADSVKGRFTISRDNAKNTVDLEMNSLKPEDTAVYYCAARTTYLYGMYYWGQGTQVTVSS”, the “polyreactivity (PSR sort gate)” value is recorded as “low polyreactivity”.
For the sequence “QVQLVESGGGLVQAGGSLRLSCAASGLILDGNVMGWYRQAPGKERELVAAINTSGGSTYYADSVKGRFTISRDNAKNTVYLQMNSLKPEDTAVYYCAARYPSDYDYWGQGTQVTVSS”, the “polyreactivity (PSR sort gate)” value is listed as “low polyreactivity”.
Turning to “QVQLVESGGGLVQAGGSLRLSCAASGYTFYSNAMGWYRQAPGKERELVAVISRGGGTYYADSVKGRFTISRDNAKNTVYLQMNSLKPEDTAVYYCARRIGHGSRPYWLETWRYPYEYWGQGTQVTVSS”, the “polyreactivity (PSR sort gate)” value is “low polyreactivity”.
Regarding “QVQLVESGGGLVQAGGSLRLSCAASGFTFGTYAMGWYRPAPGKERELVAAITRRGDNTYYADSVKGRFTISRDNAKNTVYLQMNSLNPEDTAVYYCIAAKGGRYPDYDYWGQGTQVTVSS”, the “polyreactivity (PSR sort gate)” value is recorded as “high polyreactivity”.
As to “QVQLVESGGGLVQAGGSLRLSCAASGSTFTWNAMGWYRQAPGTERELVAAITSGGRTYYADSVKGRFTISRDNAKNTVYLQMNSLKPEDTAVYYCAAKVRQYYSACNYYYWGQVTQVTVSS”, the “polyreactivity (PSR sort gate)” value is listed as “high polyreactivity”.
Next, “QVQLVESGGGLVQAGGSLRLSCAPSGRIFTRYARGWYRQAPGKERELVAVITRSGGSTYYADSVKGRFTISRDNAKNTVYLQMNSLKPEDTAVYYCAAKYYGEMYYWGQGTHVTVSS”: “low polyreactivity”.
As for “QVQLVESGGGLVQAGGSLRLSCAASGFTFGSNAMGWYRQAPGKERELVAAITWDGGSTYYADSVKGRFTISRDNAKNTVYLQMNSLKPEDTAVYYCARYLYATYGKYNYWGQGTQVTVSS”, the “polyreactivity (PSR sort gate)” value is “high polyreactivity”.
Then “QVQLVESGGGLVQEGGCLRLSSAASGSIFKSNAMGWYRQAPGKERELVATISRIGGSTYYADSVKGRFTISRDNAKNTVYLQMNCLKPEDTAVYYFAARRYLYTVGYGPRRGLVYWGQGTQVTVSS”, with “high polyreactivity”.
Take “QVQLVESGGCIVQAGGSLRLSCAASGRNLAPNAMGWSRQAPGKERELVAGITWSGGSTYYADSVKGRFTISRDNAKNTVYLPMNSLKPEDTAVYYCAACRSFPGYGLYYYWGQGTQVTVSS”: the “polyreactivity (PSR sort gate)” value is “low polyreactivity”.

Values taken from the nanobody polyreactivity screen of Harvey et al. (2022).
